Laboratory results reported in paper PMC7173960 (eLife, 2020).

B1: SB14 (VHH)
VHH: QVQLQQSGGGLVQAGGSLRLSCTASGRTFSTYVMGWFRQAPGKEREFVGAISWSGGSTVYADSVKGRFTISRDDAKNTVYLQMNSLKPEDTAVYYCAADDSSWYLVLDAYEYDYWGQGTQVTVSS
notes: source: S. cerevisiae, purified from the culture supernatant (IMAC, Ni-NTA)
B2: SB11 (VHH)
VHH: QVQLQESGGGMVQAGGSLRLSCAASGRTFRGYGMGWWRQAPGQERDIVAWIRWSDSTGFYIDSVKGRFTISSDNAKNTVYLQMNSLKVEDTAVYYCAAARGTTGWGAVEDRYWGQGAQVTVSS
notes: as for B1
B3: SB9 (VHH)
VHH: QVQLQESGGGLVQPGGSLRLSCAASGFTFGSYDMSWVRQAPGKGPEWVSGINSGAISTYYADSVKGRFTISRDNAKNTLYLQMNSLKPEDTAVYYCAKADLDKMMEMVAGRPFLPHDPNFGSWGQGTQVTVSS
notes: as for B1
B4: SB10 (VHH)
VHH: QVQLQESGGGLVQAGDSLRVSCAASGRTLRNYHVGWFRQAPGKDREFVAAVSWDDSTYYTESVKGRFTISRDNANNTVYLQMNSLKPEDTAVYYCAADRGSVPFYSDFLRGRYEYGGQGTQVTVSS
notes: as for B1
B5: SB12 (VHH)
VHH: QVQLQQSGGGLVQAGGSLRLSCAASGRKISSLTIYGMGWFRQAPGKEREFVAAISQAGGTTSYADSIKDRFTISRDNDKNTAYLQMNNLKPEDTAVYYCAADFLPRIISRRYSDYEYWGQGAQVTVSS
notes: as for B1
B6: SB13 (VHH)
VHH: QVQLQESGGGLVQAGDSLRLSCAVSGRTVSSNVMAWFRQAPGKEREAVAFIDSGSGGWPYYSDSVKGRFTISRDNAKNMVYLQMDSLIPEDTAVYYCAADSAVYSRSSRWWLRASSYSYWGQGTQVTVSS
notes: as for B1
B7: SBV Gc head domain (SBV-Gc_(head)) (domain or fragment)
chain: INCKNIQSTQLTIEHLSKCMAFYQNKTSSPVVINEIISDASVDEQELIKSLNLNCNVIDRFISESSVIETQVYYEYIKSQLCPLQVHDIFTINSASNIQWKALARSFTLGVCNTNPHKHICRCLESMQMCTSTKTDHAREMSIYYDGHPDRFEHDMKIILNIMRYIVPGLGRVLLDQIKQTKDYQALRHIQGKLSPKSQSNLQLKGFLEFVDFILGANVTIEKTPQTLTTLSLI
notes: not shown: Twin Strep-tag, C-terminal, kept
B8: RV108 (VHH)
VHH: QVQLQESGGGLVQAGGSLRLSCVASGRTPSRFFMAWFRQSPGKEREFVARINWGGGNTYYADSVKSRFTISMNNARNTAYLQMNNLKPEDTAVYICAANSDLETNVASLYDYWGQGTQVTVSS
B9: RV134 (VHH)
VHH: QVQLQESGGGLVQAGGSLRLSCAASGLTFAFYTVGWFRQAPGKEREFVGGIIWAGGRTSYADSVKGRFTISRDNAENTVYLQMNSLRPEDTAVYYCAAKNRLTSTNEYDFWGQGTQVTVSS
B10: RV126 (VHH)
VHH: QVQLQESGGGLVQPGGSLRLSCAASGSIFRFNAMGWYRQAPGNQRDQQRELVAVATNHGTTNYADSVKGRFTISRDNAKNTVALQMNSLKPEDTAVYYCNIRNRLTGDDYWGQGTQVTVSS
B11: RV139 (VHH)
VHH: QVQLQESGGGLVQAGGSLRLSCAASGPTFSRVTTMGWFRQAPGKDREFVGAISWSDGITYYADSVKGRFTISRDNAKNTMFLQMNSLKPEDTAVYYCGAKIHGGSWFPNYEQYEGMYDFWGQGTQVTVSS
B12: RV152 (VHH)
VHH: QVQLQESGGGLVQAGGSLRLSCAASGRTASSYATGWFRQAPGKEREFVAAIMWSASITHYTDSVKGRFTISRDNAKNTVYLQMNSLKPEDTAVYYCAASKGIIATQAISAYDYWGQGTQVTVSS
B13: RV106 (VHH)
VHH: QVQLQESGGGLVQAGGSLRLSCAASGLTFSSYAMGWFRQAPGKEREFVASSSRIEGIIDYADSVKGRFTISRDNAKNTVYLQMDSLKPEDTAVYFCAATRAIIAGRSRSAYDYWGQGTQVTVSS
B14: RV110 (VHH)
VHH: QVQLQESGGGLVQAGGSLRLSCVASGRSFSTSAMGWFRQTPGKEREFVAAISTSGRPTYYADSVKGRGTISRDNAKATVYLEMNSLKPEDTAAYYCAAGMRPRLTGDYYSTDEYDYWGQGTQVTVSS
B15: RV145 (VHH)
VHH: QVQLQESGGGLVQAGASLRLSCAASGLTFSSYRMGWFRQAPGKEREFVSAINWSGGNTYYADSLKGRFTISRDNAKNTVYLQMNSLKPEDTAVYYCASQWRLSGVDPLRAHEYEYWGQGTQVTVSS
B16: RV124 (VHH)
VHH: QVQLQQSGGGLVQPGGSLRLSCAASGIISSIYAMGWYRQAPGKQRELVATAGRVTNYADSVKDRFTISRDNAKNTVYLQMNSLKPEDTAVYYCNARNRLTDDNYWGQGTQVTVSS
B17: RV141 (VHH)
VHH: QVQLQQSGGGLVQAGGSLRLSCAASGRTFSRYRMGWFRQAPGKEREFVAAINWSGGRTYYVDSMEGRFTISRDNAKNTVYLQMNSLKPEDTAVYRCAAQDRLTGNVYYHEEYDYWGQGTQVTVSS
B18: RV150 (VHH)
VHH: QVQLQESGGGLVQAGGSLRLSCAASGRTLSSYAMGWFRQAPGKEREFVGAISWSGPMLYYGDSAKGRFTISRDNAKNTVYLQMNTLKPEDTAVYYCAAANRLTAEGWQQGYNYDYWGQGTQVTVSS
notes: also called VHH RV150; source: S. cerevisiae, purified from the culture supernatant (IMAC, Ni-NTA)
B19: RV148 (VHH)
VHH: QVQLQQSGGGLVQAGDSLRVSCAASGRTFSSYVLAWFRQAPGKEREFVAVVGWTGARKEYTDSVKGRFTISRDNAKNTVYLQMNSLKPEDTAVYYCAAGRYYIADGSLYDFWGQGTQVTVSS
notes: as for B1
B20: RV104 (VHH)
VHH: QVQLQESGGGLVQAGGSLRLSCTASGRTNSNYFMTWFRQAPGKEREFVAIINHITGSTEYVDSVKGRFIISRDNAKNTVYLQMDSLKPEDTAVYYCASGRIYSAIPGLYDYWGQGTRVTVSS
notes: also called VHH RV104; source: S. cerevisiae, purified from the culture supernatant (IMAC, Ni-NTA)
B21: RV107 (VHH)
VHH: QVQLQESGGGLVQAGGSLRLSCTASGRTFDGVNMAWFRQIPGKEREFVATTLWRGNVPYYTDSVEGRFTISSDNAKNTGYLQMNSLKPEDTAVYYCAARTGSTFLSSALAQSEAVYSIWGQGTQVTVSS
notes: also called VHH RV107; source: S. cerevisiae, purified from the culture supernatant (IMAC, Ni-NTA)
B22: RV115 (VHH)
VHH: QVQLQESGGGLVQPGGSLRLSCAVSGSMFSIDAMGWYRQDPGEERELVAAITSGGRTSYADSVKGRFTISRDNANNAVYLQMNNLKPEDTAVYYCNADAVAPFRMTYWGKGTLVTVSS
notes: also called VHH RV115; source: S. cerevisiae, purified from the culture supernatant (IMAC, Ni-NTA)
B23: RV136 (VHH)
VHH: QVQLQESGGGLVQAGGSLRLSCAASGRTFSRNTMGWFRQAPGKEREFVAAITGGGSTYYADSLKGRFTISRDNAKNTLYLQMNSLKPEDTAIYYCAQYKSSIYFIDYYLRIGDNYDYWGQGTQVTVSS
notes: as for B1

Biological target: B7
Test: ELISA; competition ELISA: antigen on Strep-Tactin microplates; competing VHH at 11.11 µg/ml, 1 hr RT, then HRP-conjugated analyte VHH, 1 hr RT; competition as percentage of blocking, above 50% counted as efficient
Conditions: both partners purified

Binder	binding result
B1	binds
B2	binds
B3	binds
B4	binds
B5	binds
B6	binds

Each binder was assayed against T1, SB10-ELP2ABD-SB10 (Lama glama) (assay: ELISA; […] (25 mM Tris-HCl, 2 mM EDTA, 140 mM NaCl, pH 7.6, […]). Conditions: both partners purified.
T1 construct: also called bivalent ELP-based VHH complex; copies: + +

Binder	binding result
B7	binds

What follows are binders tested against T2, RVFV Gn ectodomain (RVFV-Gn_(ecto)) (Rift Valley fever virus, Clone 13, UniProt A2T080) (assay: not given). Conditions: not given.

Binder	binding result
B8	binds
B9	binds
B10	binds
B11	binds
B12	binds
B13	binds
B14	binds
B15	binds
B16	binds
B17	binds

These binders were tested against RVFV-Gn head domain (Rift Valley fever virus, Clone 13, UniProt A2T080) (assay: ELISA). Conditions: both partners purified.

Binder	binding result
B18	binds
B19	binds
B20	binds
B21	binds
B22	binds
B23	binds

These binders were tested against RVFV-Gn subdomain B (Rift valley fever virus (RVFV).) (assay: ELISA). Conditions: both partners purified.

Binder	binding result
B19	binds
B20	binds
B23	binds

These binders were tested against T2, RVFV Gn ectodomain (RVFV-Gn_(ecto)) (assay: ELISA). Conditions: both partners purified.

Binder	binding result
B19	binds
B20	binds
B21	binds
B22	binds
B23	binds
